Assay results: patent publication US20160024487

Columns and labels:
[1] = tested on: T1, Lys(Dnp)-ATNATX4X3PRIVGG-Lys(Abz), X4 = D, X3 = F
T1 sequence: KATNATDFPRIVGGK

[2] = tested on: T2, Lys(Dnp)-ATNATX4X3PRIVGG-Lys(Abz), X4 = D, X3 = Y
T2 sequence: KATNATDYPRIVGGK

[3] = tested on: T3, Lys(Dnp)-ATNATX4X3PRIVGG-Lys(Abz), X4 = H, X3 = Y
T3 sequence: KATNATHYPRIVGGK

[4] = tested on: T4, Lys(Dnp)-ATNATX4X3PRIVGG-Lys(Abz), X4 = Q, X3 = M
T4 sequence: KATNATQMPRIVGGK

[5] = tested on: T5, Lys(Dnp)-ATNATX4X3PRIVGG-Lys(Abz), X4 = Q, X3 = W
T5 sequence: KATNATQWPRIVGGK

[6] = tested on: T6, Lys(Dnp)-ATNATX4X3PRIVGG-Lys(Abz), X4 = S, X3 = R
T6 sequence: KATNATSRPRIVGGK

[7] = tested on: T7, Lys(Dnp)-ATNATX4X3PRIVGG-Lys(Abz), X4 = W, X3 = I
T7 sequence: KATNATWIPRIVGGK

Human plasma purified Factor Xa gave an FXa kcat/KM [1] of 11 M⁻¹ s⁻¹, an FXa kcat/KM [2] of 11 M⁻¹ s⁻¹ and an FXa kcat/KM [3] of 41 M⁻¹ s⁻¹. It also gave an FXa kcat/KM [4] of 2200 M⁻¹ s⁻¹, an FXa kcat/KM [5] of 1400 M⁻¹ s⁻¹ and an FXa kcat/KM [6] of 130 M⁻¹ s⁻¹. The FXa kcat/KM [7] was 180 M⁻¹ s⁻¹.
